Experimental data published in paper PMC7359353, “Rab27a co-ordinates actin-dependent transport by controlling organelle-associated motors and track assembly proteins” (Nature Communications, 2020).
Where two headings read alike, the source gives them in different places. Values belong to the molecule of their own block, whether it stands above or below them.

Columns and labels:
[1] = target: myosin-Va GTD (Homo sapiens) (UniProt Q9Y4I1); details: cited from earlier work
[2] = target: T1, GST-Rab27a-Q78L (UniProt P23640 1-221, Q78L); assay: pull-down; quantitative GST pull-down: increasing concentrations of GST-Rab27a-Q78L on beads, HEK293 lysate (GFP-SPIRE1-MSFH ~50 nM); GFP depletion from the supernatant measured by fluorospectrometry at 20 °C; fraction bound fitted for Kd
T1 construct: Rab27a; rat Rab27a is stated only for the BiFC constructs; also called GTP-locked Rab27a-Q78L; active Rab27a-Q78L; source: E. coli Rosetta, purified (GSH-Sepharose 4B, size-exclusion chromatography)
T1 sequence (looked up): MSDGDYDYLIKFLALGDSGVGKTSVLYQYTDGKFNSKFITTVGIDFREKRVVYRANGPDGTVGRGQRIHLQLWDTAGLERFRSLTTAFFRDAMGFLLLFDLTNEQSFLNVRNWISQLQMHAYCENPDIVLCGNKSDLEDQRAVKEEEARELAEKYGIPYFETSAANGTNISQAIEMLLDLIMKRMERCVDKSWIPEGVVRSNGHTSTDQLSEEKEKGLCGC

[3] = target: myosin-Va GTD (Homo sapiens) (UniProt Q9Y4I1); details: cited from earlier work; remark: listed apart in the source
[4] = target: Mlph RBD (Homo sapiens) (UniProt Q9BV36); details: cited from earlier work
Chain of Mlph RBD (Homo sapiens) (Q9BV36 4-124): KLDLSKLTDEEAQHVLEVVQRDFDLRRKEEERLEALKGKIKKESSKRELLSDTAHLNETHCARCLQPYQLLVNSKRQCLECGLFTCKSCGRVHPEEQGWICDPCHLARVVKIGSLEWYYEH

[5] = target: T2, vYCE-Rab27a Q78L (rat, UniProt P23640 1-221, Q78L); assay: split reporter (BiFC, NanoBiT); BiFC in living HEK293a cells: vYNE-SPIRE1/2 and vYCE-Rab27a co-expressed with mCherry; vYFP signal normalised to mCherry, 48 h after transfection; details: partners not purified
T2 construct: rat Rab27a; also called Q78L mutant; source: HEK293a, transfected, in living cells
T2 sequence (looked up): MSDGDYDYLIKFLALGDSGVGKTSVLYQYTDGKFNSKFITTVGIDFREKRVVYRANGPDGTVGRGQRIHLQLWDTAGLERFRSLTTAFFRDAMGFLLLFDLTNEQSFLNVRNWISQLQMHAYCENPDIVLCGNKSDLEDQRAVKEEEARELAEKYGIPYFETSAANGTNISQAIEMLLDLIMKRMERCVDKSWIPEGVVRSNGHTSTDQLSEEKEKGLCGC

[6] = target: T3, vYCE-Rab27a wild type (rat, UniProt P23640 1-221); assay: as above; details: partners not purified
T3 construct: rat Rab27a; also called wild-type Rab27a; WT; source: HEK293a, transfected, in living cells
T3 sequence (looked up): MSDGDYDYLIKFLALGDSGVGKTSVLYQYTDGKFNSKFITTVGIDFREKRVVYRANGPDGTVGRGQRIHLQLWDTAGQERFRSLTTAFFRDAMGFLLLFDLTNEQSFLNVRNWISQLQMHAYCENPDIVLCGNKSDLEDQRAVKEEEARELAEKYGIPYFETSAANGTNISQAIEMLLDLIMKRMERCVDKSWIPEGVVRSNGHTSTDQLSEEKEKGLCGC

Chain of myosin-Va GTD (Homo sapiens) (Q9Y4I1 1448-1855): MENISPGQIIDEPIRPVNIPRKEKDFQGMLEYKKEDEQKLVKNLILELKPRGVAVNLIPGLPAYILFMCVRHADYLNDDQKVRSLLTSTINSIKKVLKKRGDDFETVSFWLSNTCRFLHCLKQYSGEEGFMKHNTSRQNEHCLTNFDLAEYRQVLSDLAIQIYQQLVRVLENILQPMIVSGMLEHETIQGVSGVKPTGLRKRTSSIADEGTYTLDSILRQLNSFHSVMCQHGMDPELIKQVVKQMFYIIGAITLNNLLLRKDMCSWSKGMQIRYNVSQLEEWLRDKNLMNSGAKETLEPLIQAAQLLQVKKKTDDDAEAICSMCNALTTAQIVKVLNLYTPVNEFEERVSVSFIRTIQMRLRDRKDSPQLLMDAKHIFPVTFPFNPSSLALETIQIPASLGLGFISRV

Molecule: SPIRE2 (from UniProt Q8WWL2)
Kd [1]: 900 nM

Molecule: Mlph (from UniProt Q9BV36)
Kd [3]: 500 nM

Molecule: Rab27a (from UniProt P51159)
Kd [4]: 112 nM

B3: GFP-SPIRE1-MSFH (domain or fragment)
chain: PEEIRRSRLDVTTPESTKNLVESSMVNGGLTSQTKENGLSTSQQVPAQRKKLLRAPTLAELDSSESEEETLHKSTSSSSVSPSFPEEPVLEAVSTRKKPPKFLPISSTPQPERRQPPQRRHSIEKETPTNVRQFLPPSRQSSRSLEEFCYPVECLALTVEEVMHIRQVLVKAELEKYQQYKDIYTALKKGKLCFCCRTRRFSFFTWSYTCQFCKRPVCSQCCKKMRLPSKPYSTLPIFSLGPSALQRGESSMRSEKPSTAHHRPLRSIARFSSKSKSMDKSDEELQFPKELMEDWSTMEVCVDCKKFISEIISSSRRSLVLANKRARLKRKTQSFYMSSPGPSEYCPSERTISEI
modifications: Limits are not in the text (Fig. 6a / Supplementary Table 9). By convention, the start is just after the last WH2 (ends at 386) and the end is the C-terminus. NM_020148.2 is taken as the 742-aa …
Kd ([2]; one partner purified): 707 ± 155 nM

Now from value to molecule:

Kd [2]: 143 nM
Molecule: GFP-Mlph-RBD (domain or fragment)

mean normalised BiFC (% max) [5]: 85.2 % max
mean normalised BiFC (% max) [6]: 85.4 % max
B1: vYNE-SPIRE2 (natural protein, human, UniProt Q8WWL2 1-714, looked up)
chain: MARAGSCGGAAAGAGRPEPWELSLEEVLKAYEQPLNEEQAWAVCFQGCRGLRGSPGRRLRDTGDLLLRGDGSVGAREPEAAEPATMVVPLASSEAQTVQSLGFAIYRALDWGLDESEERELSPQLERLIDLMANNDSEDSGCGAADEGYGGPEEEEEAEGVPRSVRTFAQAMRLCAARLTDPRGAQAHYQAVCRALFVETLELRAFLARVREAKEMLQKLREDEPHLETPRAELDSLGHTDWARLWVQLMRELRRGVKLKKVQEQEFNPLPTEFQLTPFEMLMQDIRARNYKLRKVMVDGDIPPRVKKDAHELILDFIRSRPPLKQVSERRLRPLPPKQRSLHEKILEEIKQERRLRPVRGEGWAARGFGSLPCILNACSGDAKSTSCINLSVTDAGGSAQRPRPRVLLKAPTLAEMEEMNTSEEEESPCGEVTLKRDRSFSEHDLAQLRSEVASGLQSATHPPGGTEPPRPRAGSAHVWRPGSRDQGTCPASVSDPSHPLLSNRGSSGDRPEASMTPDAKHLWLEFSHPVESLALTVEEVMDVRRVLVKAEMEKFLQNKELFSSLKKGKICCCCRAKFPLFSWPPSCLFCKRAVCTSCSIKMKMPSKKFGHIPVYTLGFESPQRVSAAKTAPIQRRDIFQSLQGPQWQSVEEAFPHIYSHGCVLKDVCSECTSFVADVVRSSRKSVDVLNTTPRRSRQTQSLYIPNTRTLDFK
notes: human SPIRE2, cDNA AJ422077; also called SPIRE2 (BiFC); source: HEK293a, transfected, in living cells; not shown: enhanced Venus YFP N-terminus fragment (amino acids 1-173)

mean normalised BiFC (% max) [5]: 75.2 % max
mean normalised BiFC (% max) [6]: 89.3 % max
B2: vYNE-SPIRE1 (natural protein, human, UniProt Q08AE8-2 1-742, looked up)
chain: MAQAAGPAGGGEPRTEAVGGEGPREPGAAGGAAGGSRDALSLEEILRLYNQPINEEQAWAVCYQCCGSLRAAARRRQPRHRVRSAAQIRVWRDGAVTLAPAADDAGEPPPVAGKLGYSQCMETEVIESLGIIIYKALDYGLKENEERELSPPLEQLIDHMANTVEADGSNDEGYEAAEEGLGDEDEKRKISAIRSYRDVMKLCAAHLPTESDAPNHYQAVCRALFAETMELHTFLTKIKSAKENLKKIQEMEKSDESSTDLEELKNADWARFWVQVMRDLRNGVKLKKVQERQYNPLPIEYQLTPYEMLMDDIRCKRYTLRKVMVNGDIPPRLKKSAHEIILDFIRSRPPLNPVSARKLKPTPPRPRSLHERILEEIKAERKLRPVSPEEIRRSRLDVTTPESTKNLVESSMVNGGLTSQTKENGLSTSQQVPAQRKKLLRAPTLAELDSSESEEETLHKSTSSSSVSPSFPEEPVLEAVSTRKKPPKFLPISSTPQPERRQPPQRRHSIEKETPTNVRQFLPPSRQSSRSLEEFCYPVECLALTVEEVMHIRQVLVKAELEKYQQYKDIYTALKKGKLCFCCRTRRFSFFTWSYTCQFCKRPVCSQCCKKMRLPSKPYSTLPIFSLGPSALQRGESSMRSEKPSTAHHRPLRSIARFSSKSKSMDKSDEELQFPKELMEDWSTMEVCVDCKKFISEIISSSRRSLVLANKRARLKRKTQSFYMSSPGPSEYCPSERTISEI
notes: human SPIRE1, cDNA NM_020148.2; also called SPIRE1 (BiFC); source: HEK293a, transfected, in living cells; not shown: enhanced Venus YFP N-terminus fragment (amino acids 1-173)
